Laboratory results reported in patent CN111423507A (CAS CENTER FOR EXCELLENCE IN MOLECULAR CELL SCIENCE, dated 2020).

Key:
[1] = target: A/HongKong/01/1968(H3N2)HA蛋白 (Influenza A virus …, UniProt Q91MA7 17-530); test: ELISA, native HA coated at 1 ug/ml, antibody 5 ug/ml
[2] = target: 全长1968HongKong H3N2 HA (义翘神州 Cat:VG40116-NH, N端His标签, 293T表达) (Influenza A virus …, UniProt Q91MA7 17-566); test: Western blot of full-length HA expressed in 293T cells
全长1968HongKong H3N2 HA (义翘神州 Cat:VG40116-NH, N端His标签, 293T表达), sequence (Q91MA7 17-566 limits assumed): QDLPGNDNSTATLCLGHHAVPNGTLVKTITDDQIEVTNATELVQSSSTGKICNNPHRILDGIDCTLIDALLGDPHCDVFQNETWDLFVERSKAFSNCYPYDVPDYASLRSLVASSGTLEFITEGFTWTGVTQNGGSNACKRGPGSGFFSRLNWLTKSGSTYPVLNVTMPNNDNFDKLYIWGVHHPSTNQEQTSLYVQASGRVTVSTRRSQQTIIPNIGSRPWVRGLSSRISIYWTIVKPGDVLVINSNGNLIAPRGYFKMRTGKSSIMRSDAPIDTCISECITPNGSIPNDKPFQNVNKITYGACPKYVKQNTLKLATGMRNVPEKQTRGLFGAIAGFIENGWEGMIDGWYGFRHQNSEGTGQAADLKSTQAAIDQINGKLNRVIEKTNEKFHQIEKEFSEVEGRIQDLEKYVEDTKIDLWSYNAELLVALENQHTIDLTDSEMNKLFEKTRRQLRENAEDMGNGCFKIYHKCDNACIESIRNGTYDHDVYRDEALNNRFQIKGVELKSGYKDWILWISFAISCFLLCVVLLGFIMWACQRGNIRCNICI

A/HongKong/01/1968(H3N2)HA蛋白, sequence (Q91MA7 17-530 limits assumed): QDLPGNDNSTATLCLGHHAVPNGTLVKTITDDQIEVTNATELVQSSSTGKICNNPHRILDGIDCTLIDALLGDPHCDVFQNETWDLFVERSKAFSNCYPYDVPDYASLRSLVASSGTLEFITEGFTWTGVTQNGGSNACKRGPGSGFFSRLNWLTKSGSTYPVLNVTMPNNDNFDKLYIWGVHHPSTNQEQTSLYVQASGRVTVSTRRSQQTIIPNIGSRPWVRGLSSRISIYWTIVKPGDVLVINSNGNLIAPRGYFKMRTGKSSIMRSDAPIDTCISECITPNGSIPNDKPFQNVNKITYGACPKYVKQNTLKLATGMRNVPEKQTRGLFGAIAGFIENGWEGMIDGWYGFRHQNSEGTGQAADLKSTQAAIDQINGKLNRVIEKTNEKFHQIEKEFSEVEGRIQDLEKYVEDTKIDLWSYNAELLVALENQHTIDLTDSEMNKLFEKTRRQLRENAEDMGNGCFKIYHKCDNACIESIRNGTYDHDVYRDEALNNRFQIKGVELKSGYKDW

B1: 12mAb (antibody, V domains shown)
VH: EVQLVESGGGLVQPGGSLRLSCAASGFTFSTYNMNWVRQAPGKGLEWLSYISTSSNTIYYADSVKGRFTISRDNAKNSLFLQMNSLRDEDTAVYYCARDRGCSSTNCYVVGYYFYGMDVWGQGTTVTVSS
VL: DIQMTQSPSSVSASVGDRVTITCRASQGISSYLAWYQLKPGRAPKLLIYGATRLQSGVPSRFSGSGSGTDFTLTISGLQPEDFATYHCQQADSFPLTFGQGTRLEIK
Does B1 bind [1]?
Result: binds

Does B1 bind [2]?
Result: binds
